Experimental data taken from patent US5512455A, “Atrial natriuretic peptide receptor protein” (Scios Nova, Inc., priority 1987, dated 1996).
Ends that are not written are not given here.

Key:
[1] = molecular target: T1, purified bovine vascular ANP receptor protein (Bos taurus, UniProt P10730); assay: Competitive binding of 125I-ANP(4-28) against ANP peptides to purified ANP receptor protein; details: for relative Ki value: purified bovine receptor, competition with 125I-ANP(4-28)
T1 construct: mature receptor protein is a 496 amino acid polypeptide, expressed as a propeptide; endogenous in cells; host or cells: bovine aortic smooth muscle (BASM) cells, cultured
T1 sequence (P10730 42-537): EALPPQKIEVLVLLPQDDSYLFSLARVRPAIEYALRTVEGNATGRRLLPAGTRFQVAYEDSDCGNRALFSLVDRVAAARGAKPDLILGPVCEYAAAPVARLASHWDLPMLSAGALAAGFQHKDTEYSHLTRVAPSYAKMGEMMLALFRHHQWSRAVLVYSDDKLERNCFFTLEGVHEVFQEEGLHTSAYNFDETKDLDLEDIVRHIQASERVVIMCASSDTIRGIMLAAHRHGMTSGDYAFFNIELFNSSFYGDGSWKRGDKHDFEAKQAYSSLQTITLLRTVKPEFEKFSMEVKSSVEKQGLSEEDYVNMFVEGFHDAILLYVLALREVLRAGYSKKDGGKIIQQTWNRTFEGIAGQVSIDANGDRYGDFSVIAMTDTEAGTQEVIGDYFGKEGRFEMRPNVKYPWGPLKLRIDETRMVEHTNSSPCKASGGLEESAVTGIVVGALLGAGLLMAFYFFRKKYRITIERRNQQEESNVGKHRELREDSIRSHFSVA
Protocol: To characterize the purified native bovine vascular ANP receptor protein further, its activity as a receptor in vitro was studied. The following ANP peptides, described in Schenk et al. (II), supra, were employed; ANP(4-28), ANP(7-28), and ANP(5-25). Bmax, Ki and Kd were calculated by standard methods. See, e.g., Scatchard (1949) Ann. N.Y. Acad. Sci., pp. 600-672. […] This corresponds to a stoichiometry of ANP to receptor protein of 1:3/subunit, or 0.7:1/holoreceptor.
An affinity matrix was made by coupling 40 mg human ANP(4-28) to 4 ml of Affi-gel 10 (Bio-Rad) as described by the manufacturer. Solubilized ANP receptor was adjusted to 10 mM CaCl2 and MgCl2 and filtered through […] (type GE, Millipore). The filtrate was chromatographed on the ANP-agarose column at a flow rate of 0.5 ml/min at 21° C. The column was washed with binding buffer (100 mM Tris HCl, pH 7.50; 100 mM NaCl; 4 mg/ml C12 E8; 10 mM CaCl2; and 10 mM MgCl2) until the effluent reached A280 =0.000. Then 6.0 ml of elution buffer (10 mM Na acetate, pH 5.00:100 mM NaCl; 4 mg/ml C12 E8; 10 mM CaCl2; 10 mM MgCl2) was added and the eluent was placed on ice and immediately adjusted to 37% (v/v) acetone. The solution was centrifuged at 4,000×g for 10 min at 4° C. and thoroughly aspirated. The pellet was resuspended in 3.0 ml of binding buffer and analyzed for purity, receptor binding activity, and amino acid sequence.
The tested ANP peptide included hANP(4-28), hANP(7-28) and atriopeptin I. Gamma-melanocyte stimulating hormone ([…]) was employed as a negative control. […] This corresponds to a stoichiometry of ANP to receptor protein of 1:3 kd subunit, or 0.7:1.0/holoreceptor.
Additional studies were conducted with ANP peptides.

[2] = molecular target: T2, ANP receptor (pANPRc-1/4) expressed in Xenopus oocytes (Bos taurus, UniProt P10730); assay: ANP binding to recombinant ANP receptor (pANPRc-1/4) in solubilized membranes of mRNA-injected Xenopus oocytes; design: species or system bovine
T2 construct: contains a 2290 base pair DNA insert which includes the entire open reading frame; expressed in transfected cells; host or cells: Xenopus oocytes injected with synthetic RNA from pANPRc-1/4; solubilized crude membranes
T2 sequence (P10730 42-537): T1 sequence (P10730 42-537)
Protocol: The receptor coding sequence from pANPRc-1/4 was cloned into pGEM1 (ProMega, Madison, Wis.) and RNA prepared according to the supplier's instructions. Oocyte preparation and injection were performed essentially as described, Gurdon et al. (1983) Meth. Enzymol. 101:370-386. Typically, each oocyte was injected with 50 nl 50 ng synthetic RNA followed by incubation in modified Barth's saline at 21° C. for 48 hr. Crude membranes were prepared and solubilized in receptor binding buffer (2 mg/ml C12 E8, 100 mM NaCl, 10 mM MgCl2, 10 mM CaCl2 and 100 mM Tris:HCl; pH 7.5). Binding was measured after incubating 0.5 ml of membrane suspension containing 10 μg protein with 2×10^5 cpm of ^125 I! […] (1×10^3 cpm/fmol) and the indicated concentration of unlabeled ANP analog for 30 min at 21° C. Reactions were terminated and free peptide separated from bound by precipitation with acetone (40% v/v final). Counts bound in the absence of unlabeled ligand were 2048±374 cpm while nonspecific binding (counts bound in the presence of 20 nM rANP) were 592±89 cpm.
Only low level, nonspecific binding was detected in membranes of uninfected, or mock injected eggs. […] Both […] and the truncated analog […] for binding. The Ii apparent obtained from the experiment was 0.27 nM for both analogs.

ANP(5-25): ANP peptide described in Schenk et al. (II) (SSCFGGRMDRIGAQSGLGCNS; ends and bridges not checked; cysteine pairing not given here; UniProt P01160 128-148, looked up, fragment)
relative Ki value [1]: 1120 pM

ANP(7-28): ANP peptide described in Schenk et al. (II) (CFGGRMDRIGAQSGLGCNSFRY; ends and bridges not checked; cysteine pairing not given here; UniProt P01160 130-151, looked up, fragment)
relative Ki value [1]: 1100 pM

ANP(4-28): ANP peptide described in Schenk et al. (II) (RSSCFGGRMDRIGAQSGLGCNSFRY; ends and bridges not checked; cysteine pairing not given here; UniProt P01160 127-151, looked up, fragment)
Bmax for receptor binding ([1]; computer analysis of binding data, b45 adds '75% receptor activity'): 5.7 nmol/mg protein | Kd ([1]; computer analysis of binding data, purified receptor): 300 pM | relative Ki value [1]: 300 pM

Bombesin: bombesin, an unrelated tetradecapeptide (Peninsula Labs)
effect on binding of radiolabeled ANP ([2]; even at 100 μM): no effect on binding | competition for binding ([2]; solubilized oocyte membranes): did not compete for binding
